Target: T1, mouse 4-1BB–Fc protein (mouse, UniProt P20334 24-187)
T1 chain: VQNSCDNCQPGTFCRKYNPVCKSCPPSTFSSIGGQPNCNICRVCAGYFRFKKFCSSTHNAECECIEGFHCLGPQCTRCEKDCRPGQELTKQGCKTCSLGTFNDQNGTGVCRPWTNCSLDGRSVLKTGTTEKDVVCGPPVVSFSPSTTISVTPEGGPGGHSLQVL
Test: SPR

koff: 0.011 s⁻¹
B1: mouse siglec-4–HIS protein (domain or fragment)
chain: GHWGAWMPSTISAFEGTCVSIPCRFDFPDELRPAVVHGVWYFNSPYPKNYPPVVFKSRTQVVHESFQGRSRLLGDLGLRNCTLLLSTLSPELGGKYYFRGDLGGYNQYTFSEHSVLDIVNTPNIVVPPEVVAGTEVEVSCMVPDNCPELRPELSWLGHEGLGEPTVLGRLREDEGTWVQVSLLHFVPTREANGHRLGCQAAFPNTTLQFEGYASLDVKYPPVIVEMNSSVEAIEGSHVSLLCGADSNPPPLLTWMRDGMVLREAVAKSLYLDLEEVTPGEDGVYACLAENAYGQDNRTVELSVMYAPWKPTVNGTVVAVEGETVSILCSTQSNPDPILTIFKEKQILATVIYESQLQLELPAVTPEDDGEYWCVAENQYGQRATAFNLSVEFAPIILLESHCAAARDTVQCLCVVKSNPEPSVAFELPSRNVTVNETEREFVYSERSGLLLTSILTIRGQAQAPPRVICTSRNLYGTQSLELPFQGAHRLMWAKIGP
